According to patent US20230265151A1, “GIP/GLP1 CO-AGONIST COMPOUNDS” (priority 2020, published 2023):

T1: human GIP receptor (human, UniProt P48546 22-466)
T1 construct: whole, on cells; also called hGIPR; human glucose-dependent insulinotropic polypeptide receptor
T1 sequence (looked up): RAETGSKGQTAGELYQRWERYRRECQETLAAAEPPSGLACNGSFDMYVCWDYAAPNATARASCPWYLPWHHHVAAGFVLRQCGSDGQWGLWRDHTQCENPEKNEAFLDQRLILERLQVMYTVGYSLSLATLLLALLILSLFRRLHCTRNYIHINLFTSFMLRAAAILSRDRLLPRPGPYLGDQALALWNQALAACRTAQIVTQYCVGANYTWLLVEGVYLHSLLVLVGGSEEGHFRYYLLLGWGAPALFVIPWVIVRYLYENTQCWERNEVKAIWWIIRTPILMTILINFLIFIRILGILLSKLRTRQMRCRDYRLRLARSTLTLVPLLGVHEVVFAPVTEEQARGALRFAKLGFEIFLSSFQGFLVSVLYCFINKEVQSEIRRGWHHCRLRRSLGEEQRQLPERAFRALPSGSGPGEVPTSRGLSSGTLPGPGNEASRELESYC


How the values were obtained:
human GIP receptor = biological target: T1, human GIP receptor; experiment: SPA competition vs [125I]-GIP, hGIPR membranes
human GLP-1 receptor = biological target: T2, human GLP-1 receptor (human, UniProt P43220 24-463); experiment: SPA competition vs [125I]-GLP-1, hGLP-1R membranes
T2 construct: whole, on cells; also called hGLP-1R; human glucagon-like peptide-1 receptor
Outline: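 Competition binding in 25 mM HEPES pH 7.4, 2.5 mM CaCl₂, 1 mM MgCl₂, 0.1% bacitracin, 0.003% TWEEN-20, EDTA-free protease inhibitors. IC₅₀ from four-parameter nonlinear fit; Kᵢ given as geometric mean ± SEM, n = independent replicates on different days.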

human glucagon receptor = biological target: T3, human glucagon receptor (human, UniProt P47871 26-477); experiment: SPA competition vs [125I]-Gcg, hGcgR membranes
T3 construct: whole, on cells; also called hGCGR; hGcgR
T3 sequence (P47871 26-477): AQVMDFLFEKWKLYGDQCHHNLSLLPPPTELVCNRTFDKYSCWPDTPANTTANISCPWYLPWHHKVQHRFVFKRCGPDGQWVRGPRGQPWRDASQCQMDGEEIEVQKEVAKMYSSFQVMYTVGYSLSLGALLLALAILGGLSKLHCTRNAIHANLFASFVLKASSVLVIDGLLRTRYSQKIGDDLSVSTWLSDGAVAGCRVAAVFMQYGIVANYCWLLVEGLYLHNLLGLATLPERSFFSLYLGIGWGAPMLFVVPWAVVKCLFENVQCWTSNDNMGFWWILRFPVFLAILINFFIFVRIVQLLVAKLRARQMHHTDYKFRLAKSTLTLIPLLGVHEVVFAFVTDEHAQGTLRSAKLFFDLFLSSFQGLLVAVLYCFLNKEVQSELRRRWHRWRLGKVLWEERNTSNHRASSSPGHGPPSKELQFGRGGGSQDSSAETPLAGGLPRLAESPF

Binder | Ki (human GIP receptor) | Ki (human GLP-1 receptor) | Ki (human glucagon receptor)
YXEGTXTSDXXIXLDXQAQXXFIKXLIKGGPSSGAPPPS (Aib2, αMeF(2F)6, 4Pal10, Aib11, αMeL13, Orn16, Aib20, Orn21, K24(Z1), αMeY25, K28(Z1), C-term NH2; Z1=Ahx-AEEA-(γ-Glu)-CO-(CH2)12-CO2 (so in the source)) | 0.0239 nM | 0.234 nM | 258 nM
YXEGTXTSDXXIXLDXQAQXXFIKXLIKGGPSSGAPPPS (Aib2, αMeF(2F)6, 4Pal10, Aib11, αMeL13, Orn16, Aib20, Orn21, K24(Z1), αMeY25, K28(Z1), C-term NH2; Z1=AEEA-Ahx-(γ-Glu)-(10-(4-carboxyphenoxy)decanoyl)) | 0.013 nM | 0.123 nM | 71.8 nM
YXEGTXTSDXXIXLDXQAQXXFIKXLIKGGPSSGAPPPS (Aib2, αMeF(2F)6, 4Pal10, Aib11, αMeL13, Orn16, Aib20, Orn21, K24(Z1), αMeY25, K28(Z1), C-term NH2; Z1=Ahx-AEEA-(γ-Glu)-(10-(4-carboxyphenoxy)decanoyl)) | 0.0143 nM | 0.243 nM | 60.1 nM
YXEGTXTSDXXIXLDXQAQXXFIKXLIKGGPSSGAPPPS (Aib2, αMeF(2F)6, 4Pal10, Aib11, αMeL13, Orn16, Aib20, Orn21, K24(Z1), αMeY25, K28(Z1), C-term NH2; Z1=PEG4-(γ-Glu)-CO-(CH2)12-CO2H) | 0.0419 nM | 0.252 nM | 351 nM
YXEGTXTSDXXIXLDXQAQXXFIKXLIKGGPSSGAPPPS (Aib2, αMeF(2F)6, 4Pal10, Aib11, αMeL13, Orn16, Aib20, Orn21, K24(Z1), αMeY25, K28(Z1), C-term NH2; Z1=PEG3-(γ-Glu)-CO-(CH2)12-CO2H) | 0.0232 nM | 0.266 nM | 170 nM
YXEGTXTSDXXIXLDXQAQXXFIKXLIKGGPSSGAPPPS (Aib2, αMeF(2F)6, 4Pal10, Aib11, αMeL13, Orn16, Aib20, Orn21, K24(Z1), αMeY25, K28(Z1), C-term NH2; Z1=PEG4-(γ-Glu)-(10-(4-carboxyphenoxy)decanoyl)) | 0.01 nM | 0.14 nM | 101 nM
YXEGTXTSDXXIXLDXQAQXXFIKXLIKGGPSSGAPPPS (Aib2, αMeF(2F)6, 4Pal10, Aib11, αMeL13, Orn16, Aib20, Orn21, K24(Z1), αMeY25, K28(Z1), C-term NH2; Z1=PEG3-(γ-Glu)-(10-(4-carboxyphenoxy)decanoyl)) | 0.0102 nM | 0.125 nM | 87.5 nM
YXEGTXTSDXXIXLDXQAQXXFIKXLIKGGPSSGAPPPS (Aib2, αMeF(2F)6, 4Pal10, Aib11, αMeL13, Orn16, Aib20, Orn21, K24(Z1), αMeY25, K28(Z1), C-term NH2; Z1=AEEA-(γ-Glu)-(10-(4-carboxyphenoxy)decanoyl)) | 0.0183 nM | 0.143 nM | 54.5 nM
YXEGTXTSDXXIXLDXQAQXEFIKXLIKGGPSSGAPPPS (Aib2, αMeF(2F)6, 4Pal10, Aib11, αMeL13, Orn16, Aib20, K24(Z1), αMeY25, K28(Z1), C-term NH2; Z1=AEEA3-(γ-Glu)-(10-(4-carboxyphenoxy)decanoyl)) | 0.0261 nM | 0.352 nM | 753 nM
YXEGTXTSDXXIXLDXKAQXEFIXXLIKGGPSSGAPPPS (Aib2, αMeF(2F)6, 4Pal10, Aib11, αMeL13, Orn16, K17(Z1), Aib20, D-Glu24, αMeY25, K28(Z1), C-term NH2; Z1=AEEA-Aoc-CO-(CH2)12-CO2H) | 0.0464 nM | 1.29 nM | 304 nM
YXEGTXTSDXXIXLDXQAQXXFIKXLIKGGPSSGAPPPS (Aib2, αMeF(2F)6, 4Pal10, Aib11, αMeL13, Orn16, Aib20, Orn21, K24(Z1), αMeY25, K28(Z1), C-term NH2; Z1=PEG6-(γ-Glu)-CO-(CH2)12-CO2H) | 0.0199 nM | 0.2 nM | 342 nM
YXEGTXTSDXXIXLDXQAQXXFIKXLIKGGPSSGAPPPS (Aib2, αMeF(2F)6, 4Pal10, Aib11, αMeL13, Orn16, Aib20, Orn21, K24(Z1), αMeY25, K28(Z1), C-term NH2; Z1=PEG5-(γ-Glu)-CO-(CH2)12-CO2H) | 0.0486 nM | 0.381 nM | 208 nM
YXEGTXTSDXXIXLDXQAQXXFIKXLIKGGPSSGAPPPS (Aib2, αMeF(2F)6, 4Pal10, Aib11, αMeL13, Orn16, Aib20, Orn21, K24(Z1), αMeY25, K28(Z1), C-term NH2; Z1=PEG6-(γ-Glu)-(10-(4-carboxyphenoxy)decanoyl)) | 0.0291 nM | 0.0943 nM | 269 nM
YXEGTXTSDXXIXLDXQAQXXFIKXLIKGGPSSGAPPPS (Aib2, αMeF(2F)6, 4Pal10, Aib11, αMeL13, Orn16, Aib20, Orn21, K24(Z1), αMeY25, K28(Z1), C-term NH2; Z1=PEG5-(γ-Glu)-(10-(4-carboxyphenoxy)decanoyl)) | 0.0387 nM | 0.0847 nM | 144 nM
YXEGTXTSDXXIXLDXQAQXXFIKXLIKGGPSSGAPPPS (Aib2, αMeF(2F)6, 4Pal10, Aib11, αMeL13, Orn16, Aib20, Orn21, K24(Z1), αMeY25, K28(Z1), C-term NH2; Z1=AEEA2-Trx-(γ-Glu)-CO-(CH2)12-CO2H) | 0.0346 nM | 0.121 nM | 945 nM
YXEGTXTSDXSIXLDXKAQXEFIXXLIEGGKSSGAPPPS (Aib2, αMeF(2F)6, 4Pal10, αMeL13, Orn16, K17(Z1), Aib20, D-Glu24, αMeY25, K31(Z1), C-term NH2; Z1=AEEA2-(10-(4-carboxyphenoxy)decanoyl)) | 0.0489 nM | 0.681 nM | 424 nM
YXEGTXTSDXXIXLDXQAQXXFIKXLIKGGPSSGAPPPS (Aib2, αMeF(2F)6, 4Pal10, Aib11, αMeL13, Orn16, Aib20, Orn21, K24(Z1), αMeY25, K28(Z1), C-term NH2; Z1=AEEA2-Trx-(γ-Glu)-(10-(4-carboxyphenoxy)decanoyl)) | 0.0493 nM | 0.197 nM | 452 nM
YXEGTXTSDXXIXLDXQAQXXFIKXLIKGGPSSGAPPPS (Aib2, αMeF(2F)6, 4Pal10, Aib11, αMeL13, Orn16, Aib20, Orn21, K24(Z1), αMeY25, K28(Z1), C-term NH2; Z1=AEEA-Trx-(γ-Glu)-CO-(CH2)12-CO2H) | 0.0376 nM | 0.254 nM | 258 nM
